B1: POU domain, class 3, transcription factor 2, residues 356 to 411; numbered along this chain, P20265 (parent)
chain: KKRTSIEVSVKGALESHFLKCPKPSAQEITSLADSLQLEKEVVRVWFCNRRQKEKR

± gives the uncertainty stated by the source.

Among the data in the Human Domainome abundance scans (Beltran et al. 2025) are abundance fitness values, retold here.

This data set covers variants of B1. Put plainly: abundance fitness (aPCA) (normalised: wild type 0, dead -1); higher = more abundant; growth selection in yeast, the domain comes from the species named. The conditions noted are these: Homo sapiens.
As for L32A, the abundance fitness was -0.994 ± 0.18.
With L32F, the abundance fitness is -0.341 ± 0.16.
Consider L32R, for which the abundance fitness was -0.911 ± 0.11.
As for L32P, the figure is -0.944 ± 0.28.
Under R50G stands -0.735 ± 0.086.
Regarding R50F, the abundance fitness was -1.05 ± 0.31.
E41V: the abundance fitness is -0.596 ± 0.1.
Regarding E41F, the abundance fitness was -0.723 ± 0.22.
As for E41N, the figure is -0.069 ± 0.18.
Take E41S: the abundance fitness is -0.256 ± 0.086.
For E41C, the abundance fitness was -0.558 ± 0.12.
As for E41L, the figure is -0.881 ± 0.1; as for V8H, 0.128 ± 0.15.
Consider V8N, for which the abundance fitness worked out at 0.212 ± 0.19.
On to V8P, for which the abundance fitness was found to be 0.119 ± 0.17.
As to V8E, the abundance fitness was 0.093 ± 0.12.
As for K23L, the figure is -0.203 ± 0.069; as for K23Q, -0.002 ± 0.12.
In the case of K23R, the abundance fitness is -0.041 ± 0.078.
Take Q52W: the abundance fitness is -0.241 ± 0.11.
On to Q52P, for which the abundance fitness is -0.956 ± 0.17.
Regarding A33F, the abundance fitness was -0.599 ± 0.12.
In the case of A33Y, the abundance fitness is -0.963 ± 0.2.
Consider T4N, for which the abundance fitness was -0.032 ± 0.16.
In the case of T4Y, the abundance fitness was -0.209 ± 0.14.
In the case of T4W, the abundance fitness was -0.546 ± 0.12.
Take K11P: the abundance fitness is -0.269 ± 0.13.
On to K11F, for which the abundance fitness was -0.139 ± 0.2.
Under K11I stands 0.074 ± 0.13; under K11C, -0.264 ± 0.13.
Regarding K11L, the abundance fitness was 0.03 ± 0.087.
Turning to K11H, the abundance fitness was 0.031 ± 0.12.
For the variant L36K, the abundance fitness is -0.868 ± 0.16.
As for L36R, the abundance fitness was -0.938 ± 0.11.
Under K1N stands -0.012 ± 0.2; under K1T, -0.206 ± 0.14.
For L14T, the abundance fitness is -0.953 ± 0.22.
For the variant L14H, the abundance fitness is -0.762 ± 0.2.
On to L14M, for which the abundance fitness was -0.501 ± 0.13.
For the variant Q27Y, the abundance fitness was -0.268 ± 0.14.
As to Q27T, the abundance fitness was found to be 0.02 ± 0.11.
As for Q27G, the abundance fitness was -0.131 ± 0.061.
On to E15D, for which the abundance fitness is -0.623 ± 0.18.
As for E15Y, the figure is -0.777 ± 0.21; as for E28I, -0.52 ± 0.14.
Turning to E28D, the abundance fitness is -0.281 ± 0.21.
Consider P24Q, for which the abundance fitness was -0.86 ± 0.37.
As for P24S, the abundance fitness is -0.998 ± 0.18.
In the case of P24W, the abundance fitness was -0.839 ± 0.16.
As for P24M, the figure is -0.628 ± 0.14.
For the variant R44G, the abundance fitness is -0.188 ± 0.1.
For the variant R44F, the abundance fitness is -0.481 ± 0.089.
As for R44P, the figure is -0.814 ± 0.12; as for R44V, -0.38 ± 0.076; as for P22R, -0.367 ± 0.08.
As for P22K, the abundance fitness is -0.348 ± 0.13.
In the case of P22I, the abundance fitness was -0.704 ± 0.17.
In the case of P22F, the abundance fitness is -0.996 ± 0.37.
As to P22C, the abundance fitness was -0.227 ± 0.15.
As for P22E, the abundance fitness is -0.246 ± 0.11.
For S5W, the abundance fitness was -0.313 ± 0.11.
As for S5K, the abundance fitness came to 0.14 ± 0.12.
As for S5G, the abundance fitness worked out at 0.024 ± 0.072.
Under K53M stands 0.11 ± 0.29; under F18H, -0.938 ± 0.27; under F18A, -0.902 ± 0.13.
For F18M, the abundance fitness is -1.02 ± 0.23.
As for F18K, the figure is -0.936 ± 0.3.
As for F18S, the figure is -0.824 ± 0.12; as for C48E, 0.149 ± 0.15.
Consider I29L, for which the abundance fitness is -0.095 ± 0.089.
Consider I29K, for which the abundance fitness was -0.994 ± 0.36.
As for I29H, the figure is -0.817 ± 0.26; as for I29Q, -0.782 ± 0.19; as for I29R, -0.93 ± 0.099.
For the variant I29N, the abundance fitness was -1.05 ± 0.25.
In the case of S25T, the abundance fitness was 0.038 ± 0.12.
As for S25C, the figure is -0.231 ± 0.14; as for R51H, -0.098 ± 0.17.
In the case of R51G, the abundance fitness was -0.198 ± 0.081.
In the case of C21D, the abundance fitness is -0.062 ± 0.16.
For the variant W46Q, the abundance fitness was -0.78 ± 0.16.
As to W46L, the abundance fitness was -0.934 ± 0.091.
As for W46S, the figure is -0.698 ± 0.1.
Turning to K2C, the abundance fitness is -0.395 ± 0.2.
As for K2F, the abundance fitness was -0.199 ± 0.2.
Consider N49C, for which the abundance fitness was -0.14 ± 0.11.
As for N49D, the figure is 0.221 ± 0.2; as for N49A, -0.239 ± 0.093.
As for N49M, the figure is -0.197 ± 0.1; as for N49H, -0.08 ± 0.19.
Under K40L stands -0.147 ± 0.083; under Q37L, -0.245 ± 0.07.
In the case of Q37Y, the abundance fitness was -0.353 ± 0.14.
On to Q37I, for which the abundance fitness was -0.63 ± 0.13.
Under Q37D stands -0.192 ± 0.14; under Q37W, -0.394 ± 0.12.
Regarding R56P, the abundance fitness was -0.58 ± 0.29.
As for R56T, the abundance fitness was 0.063 ± 0.26.
Turning to R56D, the abundance fitness came out at 0.12 ± 0.18.
In the case of R56G, the abundance fitness amounted to 0.042 ± 0.1.
For the variant R56C, the abundance fitness was 0.045 ± 0.24.
For the variant R56M, the abundance fitness came out at 0.157 ± 0.18.
On to R56A, for which the abundance fitness is -0.335 ± 0.23.
For the variant G12N, the abundance fitness was -0.153 ± 0.16.
Regarding G12E, the abundance fitness is 0.079 ± 0.13.
Under G12C stands 0.039 ± 0.098; under R3F, -0.021 ± 0.13.
Under R3C stands 0.246 ± 0.12; under R3G, 0.092 ± 0.08.
On to V45Q, for which the abundance fitness is 0.061 ± 0.11.
Under E7V stands -0.21 ± 0.071; under E7Y, -0.358 ± 0.072.
As to S16I, the abundance fitness was -0.368 ± 0.18.
Regarding S16K, the abundance fitness amounted to 0.12 ± 0.13.
S16H: the abundance fitness is -0.21 ± 0.16.
Consider S16A, for which the abundance fitness was 0.097 ± 0.11.
As for S16M, the figure is -0.06 ± 0.12; as for K55S, 0.024 ± 0.099; as for K55L, -0.087 ± 0.084.
Consider V10I, for which the abundance fitness was -0.013 ± 0.12.
Under V10A stands -0.036 ± 0.08; under V10K, 0.041 ± 0.12; under V10F, -0.568 ± 0.21.
Under E39N stands -0.217 ± 0.13; under E39F, -1.01 ± 0.26.
For the variant E39G, the abundance fitness was -0.324 ± 0.088.
On to E39Y, for which the abundance fitness is -0.653 ± 0.16.
As for D34L, the figure is 0.098 ± 0.077.
With D34R, the abundance fitness is 0.244 ± 0.073.
In the case of S9V, the abundance fitness is -0.123 ± 0.083.
For S9F, the abundance fitness is -0.366 ± 0.1.
As for V43H, the figure is -0.938 ± 0.2; as for V43Y, -0.955 ± 0.2.
For V43Q, the abundance fitness is -0.877 ± 0.19.
As to V43N, the abundance fitness is -0.889 ± 0.34.
Take F47P: the abundance fitness was -0.941 ± 0.24.
As to F47G, the abundance fitness was -0.698 ± 0.14.
Regarding L19T, the abundance fitness was -0.183 ± 0.12.
Under L19I stands -0.113 ± 0.15; under L19S, -0.03 ± 0.086.
Regarding T30L, the abundance fitness is -0.091 ± 0.083.
Take T30S: the abundance fitness worked out at 0.036 ± 0.077.
T30R: the abundance fitness is -0.151 ± 0.069.
On to A13S, for which the abundance fitness was -0.162 ± 0.09.
As to A13T, the abundance fitness was -0.064 ± 0.12.
Turning to I6M, the abundance fitness is -0.049 ± 0.17.
For I6Q, the abundance fitness is -0.226 ± 0.19.
As for K20C, the figure is -0.392 ± 0.11.
As for K20N, the figure is -0.262 ± 0.13; as for K20W, -0.605 ± 0.12.
With K20H, the abundance fitness was -0.463 ± 0.27.
Take K20Q: the abundance fitness was -0.443 ± 0.16.
Turning to K20I, the abundance fitness was -0.215 ± 0.13.
As for L38G, the abundance fitness is -0.871 ± 0.076.
For the variant L38P, the abundance fitness is -0.969 ± 0.17.
On to L38V, for which the abundance fitness was -0.119 ± 0.074.
Take E54R: the abundance fitness is -0.472 ± 0.085.
Turning to E54P, the abundance fitness is -0.861 ± 0.19.
Consider E54W, for which the abundance fitness was -0.581 ± 0.12.
Under E54K stands -0.495 ± 0.18.
For the variant E54V, the abundance fitness was -0.466 ± 0.096.
With H17K, the abundance fitness is -0.364 ± 0.13.
Consider H17M, for which the abundance fitness was -0.047 ± 0.11.
For the variant H17V, the abundance fitness was -0.287 ± 0.082.
Under V42F stands -0.042 ± 0.15.
Take V42S: the abundance fitness is -0.179 ± 0.11.
